What was measured:
[1] = system: MS2 coat protein; test: apparent KD of MS2 coat protein; designed switch direction (-1 OFF switch, 1 ON switch): -1; higher = weaker reporter binding; details: Eterna round: R98
Method: (§1)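 RNA-MaP: designed FMN/MS2 RNA switches (84 nt design region) are transcribed on-chip within common flanks and titrated with SNAP-549-labelled MS2 coat protein (about 1-3000 nM) in 100 mM Tris pH 7.5, 80 mM KCl, 4 mM MgCl2, without or with 200 uM FMN. Median apparent KD per design; activation ratio = KD,OFF / KD,ON.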

[2] = system: MS2 coat protein; test: apparent KD of MS2 coat protein; designed switch direction (-1 OFF switch, 1 ON switch): 1; higher = weaker reporter binding; details: Eterna round: R98
Method: as §1

Sequence: AACAGCGUAGAUAAUAAUGAUUACAUGAGGAUCACCCAUGUAUAGGAUAUGCAGUGGAAUACACUGCAGAAGGAUACAUCGCUG [Exclusion NG 3/18-B1]
- apparent KD of MS2 coat protein ([1]; input ligand: FMN 200 uM): 33 nM
- apparent KD of MS2 coat protein ([1]; input ligand: none): 17.5 nM

Sequence: AAUAUAAAAGAGCUGGAUAACUCAACAUGAGGAUCACCCAUGUAGGAUAUCAGCACGAUAAGUGCUGAGAAGGACAACCAGCUC [Denovo 69]
- apparent KD of MS2 coat protein ([1]; input ligand: FMN 200 uM): 16.2 nM
- apparent KD of MS2 coat protein ([1]; input ligand: none): 14.8 nM

Sequence: ACAUGAGGAUCACCCAUGUAAUAACAUCGGAUUGUCGAAGGUGAGGAUAUCGUACUGGAAUAUUUCGAGAAGGCACAUUCUCCU [JR_SSNG3_Sub075]
- apparent KD of MS2 coat protein ([2]; input ligand: FMN 200 uM): 25.9 nM
- apparent KD of MS2 coat protein ([2]; input ligand: none): 23.5 nM

Sequence: AUAGCAUACCGAGGAUAUUCAUAUAAUAAAUAAACAUGAGGAUCACCCAUGUGGCGAAAGCCUAGGGAGAAGGCGGAAUGCUAG [salish99_SSNG2_r2_101]
- apparent KD of MS2 coat protein ([2]; input ligand: FMN 200 uM): 29.9 nM
- apparent KD of MS2 coat protein ([2]; input ligand: none): 237 nM

Sequence: AUUAAUGGGUGAGGAUAUGCACAGGAUCACCGUGUAGAAGGCAUCAGGUAGAAGGUGCAGAGGAUCACCCUGUAAGGAUAUAUC [pwkr2 ssNG1 DX.13]
- apparent KD of MS2 coat protein ([2]; input ligand: FMN 200 uM): 858 nM
- apparent KD of MS2 coat protein ([2]; input ligand: none): 998 nM

Sequence: CAAUUAUGGUGAGGAUAUGCACAGGAUCACCGUGUAGAAGGCAUCAGGUAGAAGGUGCAGAGGAUCACCCUGUAAGGAUAUAUC [pwkr2 ssNG1 DX.17]
- apparent KD of MS2 coat protein ([2]; input ligand: FMN 200 uM): 109 nM
- apparent KD of MS2 coat protein ([2]; input ligand: none): 666 nM

Sequence: CACUCAAGGUGAGGAUAUGCACAGGAUCACCGUGUAGAAGGCAUCAGGUAGAAGGUGCAGAGGAUCACCCUGUAAGGAUAUAUC [pwkr2 ssNG1 DX.11]
- apparent KD of MS2 coat protein ([2]; input ligand: FMN 200 uM): 334 nM
- apparent KD of MS2 coat protein ([2]; input ligand: none): 867 nM

Sequence: CAUAGGUGUACAUGAGGAUCACCCAUGUCCCUGGUCAUUGGACAGGAUAUAUGGGCGGUCGCUUCAUAGAAGGGUUAAAUGGGA [Orenatis]
- apparent KD of MS2 coat protein ([2]; input ligand: FMN 200 uM): 224 nM
- apparent KD of MS2 coat protein ([2]; input ligand: none): 66.6 nM

Sequence: CAUGAAGGGUGAGGAUAUGCACAGGAUCACCGUGUAGAAGGCAUCAGGUAGAAGGUGCAGAGGAUCACCCUGUAAGGAUAUAUC [pwkr2 ssNG1 DX.16]
- apparent KD of MS2 coat protein ([2]; input ligand: FMN 200 uM): 482 nM
- apparent KD of MS2 coat protein ([2]; input ligand: none): 1310 nM

Sequence: CCAGAGAUAUGAGGAUAUCGAGUGGAUAACACUCGAGAAGGCAUGUGAAAACAUGAGGAUCACCCAUGUGAUCAAUACUCUGGA [Same State NG1 - WT Aptamer 2D]
- apparent KD of MS2 coat protein ([2]; input ligand: FMN 200 uM): 27.4 nM
- apparent KD of MS2 coat protein ([2]; input ligand: none): 170 nM

Sequence: CCCUUCAGAAGAGGGACAUGAGGAUCACCCAUGUAGGCUGCACAGGAUAUCGAUCGGAGGCGGUACGAGAAGGGUGACGUCAUU [Soedgege]
- apparent KD of MS2 coat protein ([2]; input ligand: FMN 200 uM): 168 nM
- apparent KD of MS2 coat protein ([2]; input ligand: none): 79.3 nM

Sequence: CCGGAAACGGGUAGCUGACAUGAGGAUCACCCAUGUGAAUCUGAGGAUAUGGAUGGUAAUUCCAUCCAGAAGGCAGUCAGCUAC [Mat - Same State NG 3 - JL Mod - D82]
- apparent KD of MS2 coat protein ([2]; input ligand: FMN 200 uM): 59.1 nM
- apparent KD of MS2 coat protein ([2]; input ligand: none): 551 nM

Sequence: CCGGAAACGGGUAGCUGUACAUGAGGAUCACCCAUGUGAUCAUAGGAUAUGGUUCCUAAUUGGAACCAGAAGGAUGUCAGCUAC [Mat - Same State NG 3 - JL Mod - D86]
- apparent KD of MS2 coat protein ([2]; input ligand: FMN 200 uM): 434 nM
- apparent KD of MS2 coat protein ([2]; input ligand: none): 32.6 nM

Sequence: CCGGUGUAUGCAGGAUAUGAGAGGAGGUGACCAUCAGAAGGGCAAGCCCACAUGAGGAUCACCCAUGUACUAAGAGACAAGGCC [Tienlaonso]
- apparent KD of MS2 coat protein ([2]; input ligand: FMN 200 uM): 50.7 nM
- apparent KD of MS2 coat protein ([2]; input ligand: none): 25.5 nM

Sequence: CCGUGACACGAAGGAUAUGUGGGUGGUAGUCUGUGCUCCGCCUACAUGAGGAUCACCCAUGUAUCACAGAAGGUCGGACGUCAA [Zaaerzaza]
- apparent KD of MS2 coat protein ([2]; input ligand: FMN 200 uM): 71.2 nM
- apparent KD of MS2 coat protein ([2]; input ligand: none): 51.3 nM

Sequence: CCUACCAACACAGGAUAUGCUAUCCUUUGGGUAGCAGAAGGGUGAAACAUGAGGAUCACCCAUGUGGUGGGACCCGGUGACGGG [Mat - Same State NG 1 - Eli mod - D70]
- apparent KD of MS2 coat protein ([2]; input ligand: FMN 200 uM): 116 nM
- apparent KD of MS2 coat protein ([2]; input ligand: none): 1010 nM

Sequence: CUAAUUUAUUGAGGAUAUGCACAGGAUCACCGUGUAGAAGGCAUCAGGGAGAAGGUGCAGAGGAUCACCCUGUAAGGAUAUCAA [pwkr2 ssNG1 DX.3]
- apparent KD of MS2 coat protein ([2]; input ligand: FMN 200 uM): 105 nM
- apparent KD of MS2 coat protein ([2]; input ligand: none): 231 nM

Sequence: CUAGCAUACCGAGGAUAUUCAUAUAAUAAAUAAACAUGAGGAUCACCCAUGUGGCGAAAGCCUAGGGAGAAGGCGGAAUGCUAG [salish99_SSNG2_r2_004]
- apparent KD of MS2 coat protein ([2]; input ligand: FMN 200 uM): 20.1 nM
- apparent KD of MS2 coat protein ([2]; input ligand: none): 212 nM

Sequence: GCACUCAAGUUAGGAUAUGGAUCGGAAAACGAUCCAGAAGGAACAUGGGAACAUGAGGAUCACCCAUGUUCCAGAAACGAGUGC [SameSame 1 - Jieux - Same State NG 1]
- apparent KD of MS2 coat protein ([2]; input ligand: FMN 200 uM): 188 nM
- apparent KD of MS2 coat protein ([2]; input ligand: none): 733 nM

Sequence: GCACUCAAGUUAGGAUAUGGAUCGGAAACCGAUCCAGAAGGAACACAAUAACAUGAGCAUCAGCCGUGUUCCAGAAACGAGUGC [SameSame 15 - Jieux - Same State NG 1]
- apparent KD of MS2 coat protein ([2]; input ligand: FMN 200 uM): 126 nM

Source: the supplement of paper PMC9170038
